Consider 9 molecules from patent US20220048967A1 (published 2022).

Numbered stars: 1 amine (or outer) side, 2 acyl side, 3 side chain; on linkers, the order of the positions; unused ones are H or OH. Square brackets hold non-standard residues; d marks the D form. Side chains are listed from the residue outwards. Ends that are not written are not given here. * marks the point of attachment. C20 diacid = O=C(O)CCCCCCCCCCCCCCCCCCC(=O)*; C18 diacid = O=C(O)CCCCCCCCCCCCCCCCC(=O)*; αMePhe(2-F) = C[C@](N)(Cc1ccccc1F)C(=O)O; γGlu = O=C(O)[C@H](CCC(=O)[*:2])N[*:1]; Desaminohistidyl = O=C(CCc1c[nH]cn1)*; Desaminotyrosyl = O=C(CCc1ccc(O)cc1)*; αMeP = C[C@@]1(C(=O)O)CCCN1; AEEA = NCCOCCOCC(=O)O; Aib = CC(C)(N)C(=O)O Bounds are passed on as bounds.

Common to all, as to experiment: cell-based or functional assay
In assay [1] the target is Pro-Link-tagged Human GLP-1R (human, UniProt P43220 24-463).
The target of assay [2] is T1, human gastric inhibitory peptide receptor (GIPR) (human, UniProt P48546 22-466).
T1 sequence (looked up): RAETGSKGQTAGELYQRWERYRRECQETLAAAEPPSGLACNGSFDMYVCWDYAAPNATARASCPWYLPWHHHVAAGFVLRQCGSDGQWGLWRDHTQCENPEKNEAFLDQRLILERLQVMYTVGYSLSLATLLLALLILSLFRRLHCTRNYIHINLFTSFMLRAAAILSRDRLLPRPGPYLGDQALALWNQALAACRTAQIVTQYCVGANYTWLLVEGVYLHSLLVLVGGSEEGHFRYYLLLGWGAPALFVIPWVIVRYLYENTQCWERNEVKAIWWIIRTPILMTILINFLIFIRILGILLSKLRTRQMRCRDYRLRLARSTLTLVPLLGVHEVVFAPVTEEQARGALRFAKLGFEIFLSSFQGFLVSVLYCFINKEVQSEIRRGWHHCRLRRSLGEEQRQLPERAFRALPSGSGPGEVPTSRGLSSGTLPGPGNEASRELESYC

In assay [3] the target is human GLP-1 receptor (GLP-1R) (human, UniProt P43220 24-463).
Assay [4] addresses human GLP-1 receptor (human, UniProt P43220 24-463).

B1: Example 360 (peptide)
peptide: XXEGTFTSDYSIXLDXKAQXAFVEYLIEGGPSSGAPPPS
modifications: D-Tyr1, Aib2, αMeL13, Orn16, K17 conjugated to (2-[2-(2-Amino-ethoxy)-ethoxy]-acetyl)2-(γ-Glu)-CO-(CH2)18-CO2H, Aib20, C-terminal amide (NH2)
Regarding B1, in assay [1], the “hGLP1R B-Arrestin2 % Top” value amounted to 25.8% and the “hGLP1R B-Arrestin2 Rel EC50” value was 39.5 nM.

B2: Example 362 (peptide)
peptide: XXEGTFTSDYSIXLDXKAQXAFVXYLIAGGPSSGAPPPS
modifications: D-Tyr1, Aib2, αMeL13, Orn16, K17 conjugated to (2-[2-(2-Amino-ethoxy)-ethoxy]-acetyl)2-(γ-Glu)-CO-(CH2)18-CO2H, Aib20, D-Glu24, C-terminal amide (NH2)
In the case of B2, the “hGLP1R B-Arrestin2 Rel EC50” value in assay [1] was > 11000 nM.

B3: Example 364 (peptide)
peptide: XXEGTFTSDYSIXLDXKAQXAFVXYLIAGGPSSGAPPPS
modifications: D-Tyr1, Aib2, αMeL13, Orn16, K17 conjugated to (2-[2-(2-Amino-ethoxy)-ethoxy]-acetyl)2-(γ-Glu)-CO-(CH2)16-CO2H, Aib20, D-Glu24, C-terminal amide (NH2)
Consider B3, for which, in assay [1], the “hGLP1R B-Arrestin2 Rel EC50” value is > 12000 nM.

B4: Example 200 (peptide)
peptide: [Desaminotyrosyl]AEGTFTSDYSILLDEK([AEEA-AEEA-γGlu-C20 diacid])AQQAFIEYLIEGGPSSGAPPPS-NH2
Consider B4, for which, in assay [2], the “hGIPR cAMP EC50 ratio” value was found to be 0.0146 and the “hGIPR cAMP Rel EC50” value was 12.3 nM. Also, in assay [3], the “hGLP1R cAMP EC50 ratio” value is 0.573 and the “hGLP1R cAMP Rel EC50” value came out at 0.0818 nM.

B5: Example 201 (peptide)
peptide: [Desaminohistidyl][αMeP]EGTFTSDYSILLDEK([AEEA-AEEA-γGlu-C20 diacid])AQQAFIEYLIEGGPSSGAPPPS-NH2
As to B5, in assay [2], the “hGIPR cAMP EC50 ratio” value is < 0.00602 and the “hGIPR cAMP Rel EC50” value was > 30 nM. Further, in assay [3], the “hGLP1R cAMP EC50 ratio” value turned out to be 1.22 and the “hGLP1R cAMP Rel EC50” value is 0.0385 nM.

B6: Example 199 (peptide)
peptide: [Desaminotyrosyl][Aib]EGTFTSDYSILLDEK([AEEA-AEEA-γGlu-C20 diacid])AQQAFIEYLIEGGPSSGAPPPS-NH2
Regarding B6, in assay [2], the “hGIPR cAMP EC50 ratio” value was < 0.00602 and the “hGIPR cAMP Rel EC50” value was > 30 nM. Moreover, in assay [3], the “hGLP1R cAMP EC50 ratio” value was determined as 1.11 and the “hGLP1R cAMP Rel EC50” value was 0.0422 nM.

B7: Example 220 (peptide)
peptide: Y[Aib]EGT[αMePhe(2-F)]TSDYSIXLDEK([AEEA-AEEA-γGlu-C18 diacid])AQ[Aib]EFI[dE]YLIEGG-NH2
modifications: not fully specified (residue 13); printed as Y-Aib-EGT-αMeF(2F)-TSDYSI-αMeF-LDEK((2-[2-(2-Amino-ethoxy)-ethoxy]-acetyl)2-(γ-Glu)-CO-(CH2)16-CO2H)AQ-Aib-EFI-(D-Glu)-YLIEGG-NH2
Consider B7, for which, in assay [2], the “hGIPR cAMP EC50 ratio” value was 6.3 and the “hGIPR cAMP Rel EC50” value was 0.0315 nM. In addition, in assay [3], the “hGLP1R cAMP EC50 ratio” value came to 1.36 and the “hGLP1R cAMP Rel EC50” value was 0.0312 nM.

B8: Example 1 (peptide)
peptide: YXEGTXTSDYSIXLDEKAQXEFIXYLIEGGPSSGAPPPS
modifications: Aib2, αMeF(2F)6, αMeL13, K17 conjugated to (2-[2-(2-Amino-ethoxy)-ethoxy]-acetyl)2-(γ-Glu)-CO-(CH2)18-CO2H, Aib20, D-Glu24, C-terminal amide (NH2)
As to B8, in assay [1], the “hGLP1R B-Arrestin2 % Top” value came to 105% and the “hGLP1R B-Arrestin2 Rel EC50” value turned out to be 5 nM. Moreover, in assay [4], the “hGLP1R GTPgS % Top” value is 91.1% and the “hGLP1R GTPgS Rel EC50” value came to 0.235 nM.

B9: Example 224 (peptide)
peptide: YXEGTXTSDYSIXLDEKAQXEFIXYLIEGGPSSGAPPPS
modifications: Y-Aib-EGT-αMeF(2F)-TSDYSI-Aib-LDEK((2-[2-(2-Amino-ethoxy)-ethoxy]-acetyl)2-(γ-Glu)-CO-(CH2)18-CO2H)AQ-Aib-EFI-(D-Glu)-YLIEGGPSSGAPPPS-NH2
For the molecule B9, in assay [2], the “hGIPR cAMP EC50 ratio” value worked out at 3.52 and the “hGIPR cAMP Rel EC50” value was 0.0545 nM. Moreover, in assay [3], the “hGLP1R cAMP EC50 ratio” value was found to be 1.06 and the “hGLP1R cAMP Rel EC50” value was 0.0349 nM.
